The data set can be described thus: label from the status in PepcDB records.
As to “MMSAVPVSLPVKMLVTRHISPDRYGDFLAWMRQGEILAAGFPGFLGSGVLQPPEGGDQYQIVLRFDSEASLARWEQSLPRRMWLERGAALVRASHARRVTGMDSWFGAPAGAPPRWKQAVSIWLVYFPMLLLFSTALDAQLNALPLFWRVLATTLCMTPVLSFLCIPLVTRVLRGWLHPRAVGAAD”, the protein production result is given as “failed”.
To “MMSNLCKYGPPPDSDSDSSYDGFYFSDKVKRSKPAPYVDPEQKLYDAVVAGDLKTMQEEMRKLVLQVDQPVKGGLNLLMLACREGHYKIVEWLLERAGANVNRQLDSLMPLMMACNTTHKDPCLAERIVGLLLRHGAVINVSEKYGMTPFMFACQNGFAGVVRLLIKDASFDAVDNQGCTAIFHAIEKNHVEVVKLLVEAGANATIANNKGYTPTQVAECHGYYDLLEILPRPASTYLVPTHFLGYNTLRDHIPRIFLKSDCPEYFQELNGILEAINIGNMVQYFAIARISLADFLVMDEQSLREIGIEYPIFRHKILTGILDFHLHHWSNSSIARVKKDEMNNFYEILLITASHLQHLVIIQASLRFILKNQEHNKMGQPSEMQVAAMKSNLQGYRDVLNQITKTVKYLGSFSPSQNPLFIDFNEILAERKRKKVRSYFKYTTIILGISVFICLKCKWFS” belongs “failed”; to “MMSQSERPDVAEIRVPFRDVDMNGQMFLASYISYAESVLASFWSSRPDVDDEPVYSPSKVSCFLHRPLHYDEPATFTATIDKIGVRSIGFLISIDTGEERAAEVEIIWQAHAPEDQSPASLPEETRDWLYRFLN”, “failed”; to “MMSTTLNTRQATTADIPFLARIEYEASLPPLNHCFWDDLLDGTGTTALQFIEAELKADACNWGNVPDFLILEAGGQPVAAAAGYVPGTDDYCPLCLSQLGAIAKELNWGEETLEGFREHYVGLWGGNLRPLFLTPQATWIIENVAVLPEARGQGFGKALLRALLAKGRSQGHEFAGIMVINGNDRARHTYESVGFKPYQTFYKDYFWEQFKIDFPGVTKFGMRLN”, “failed”.
Under “MMSYDAETGIAKVKCQSQSTCGACSARETCGTESLSELNGKRGEHIFTLETITPLRTDQMVEIGLEEKSMLFSALLMYIVQLFTLLVATLLSSYISENELIRAILIFMLTALSFVMVKRYTRKLGQQTEFQSVLLRVLF” stands “failed”; under “MMTALATVTGVERHGKQYEIDLSCEQQTSCSSCSSQKSCGTGVVTKAIGNKSLSWHLRTEKNVQVGQVVEIGFPESSLIKS”, “failed”.
Consider “MMTFNLREQQKRLQARMDELRAEIAFAQKGEKPWPYRSCLMREGRGYCEKHGEYHTHILVWSDRNGEDREEISCCPDCLIAEANDLTMELSSIKAEELTDNAGIALRFRDCEFDNYLEVNPGAARNLAACRRYAENWPDMLENGTSLVMTGSCGTGKNHLAVAMAKHIIRNYLASVEITDVMRLTRAVKNCWRNDSEKTADEVIERYASMDLLIIDEVGVQFGSAAEMAILQEIINARYESILPTILISNLSPEELWAFISPRIADRITDGGRNWLSFNWPSYRSRIRGVAALEHHHHHH”, for which the protein production result is on record as “failed”.
Under “MMTKYGVVGTGYFGAELARFMSKVEGAKITAIYDPVNAAPIAKELNCVATATMEALCSHPDVDCVIIASPNYLHKAPVIAAAKAGKHVFCEKPIALNYQDCKDMVDACKEAGVTFMAGHVMNFFHGVRHAKALIKAGEIGEVTQVHTKRNGFEDVQDEISWKKIRAKSGGHLYHHIHELDCTLFIMDETPSLVSMAAGNVAHKGEKFGDEDDVVLITLEFESGRFATLQWGSSFHYPEHYVLIEGTTGAILIDMQNTAGYLIKAGKKTHFLVHESQAEDDDRRNGNISSEMDGAIAYGKPGKRTPMWLSSIMKLEMQYLHDVINGLEPGEEFAKLLTGEALEHHHHHH” stands “failed”; under “MMTLVILLLFLLFCVLVFWISITFSIKYVLIFTAFLFSGLLVYYSFLTLAGLVHRSRKQKDRTLEHYPSVDILIPAHNEGVVIKDTLEAMAKIEYPGKLTVYLLNDNSQDETPEIGDDFDKAYAHIRHIRVPPGEPKGKSRVLNYGLSISDGEYFCVYDADNQPEPHALRMLVEHAETTEDAVGAVGHVRTVNEKRNWLTRMISLEFQIFQLLMQSGRWLLFQTGSLTGTNMLLRRAALEELGGYDPYAIAEDAELTLRITQKGYLLPIVPESITWEQEPEHLKILIKQRTRWLQGNLYILEKMFSSLSFFKGKLLVHSLQQVLVYVVFWLFLIISNVWFVIGLLGIFQIQYSIPLLFMWYVAYVTYVSQLFSAQSVERTFTPTNIFISVIMYFTYAQLFTYLFIRSLILYLRAKSKKQVIGWDKTVRFKKDK”, “failed”.
For the sequence “MMTQPMPGKPAEDAENELDIRGLFRTLWAGKLWIIGMGLAFALIALAYTFFARQEWSSTAITDRPTVNMLGGYYSQQQFLRNLDVRSNMASADQPSVMDEAYKEFVMQLASWDTRREFWLQTDYYKQRMVGNSKADAALLDEMINNIQFIPGDFTRAVNDSVKLIAETAPDANNLLRQYVAFASQRAASHLNDELKGAWAARTIQMKAQVKRQEEVAKAIYDRRMNSIEQALKIAEQHNISRSATDVPAEELPDSEMFLLGRPMLQARLENLQAVGPAFDLDYDQNRAMLNTLNVGPTLDPRFQTYRYLRTPEEPVKRDSPRRAFLMIMWGIVGGLIGAGVALTRRCSK”, the protein production entry is reported as “not failed”.
As for “MMTTNTEYAPYRLELVNITKRYGGLVANDHISLKVAAGEIHAVLGENGAGKSTLMKIIYGAVKADEGEIVWNGRSVTVDSPAAARRLGIGMVYQHFSLFETLTVVENIALGLEEKFDLAHLAQRVVEVSEKYGLPIDPQRMVHSLSVGERQRVEIVRCLLQNPSLLILDEPTSVLTPQAVQVLFQTLRRLASEGVSILYISHKLNEIQSLCDTATILRGGQVTGTAIPKQETTASLAKMMIGRDLPAYQQHAYEGVQQPIFQVKQLSIPAQDMFGTSLKEINLSVNTGEILGIAGISGNGQAELLTALSGETTSLKESFWLDGQAIGHLHAGQRRKLGFGFVPEERLGRGAVPAMSLTENTLLTAFRMGMTRWGLVNYAKASAFAQACISKFGVKASGSDAAARSLSGGNLQKFIVGREIMQQPKVMVVAQPTWGVDVGASAFIRQTLIDLSRQGVAIVVISEELEELFEISDRIAVLAAGQLSPPQPVNETNAEQIGLLMSGLQRDSQPQEDVIRVSI”, the protein production result is recorded as “failed”.
With “MMVISEKVRKALNDQLNREIYSSYLYLSMATYFDAEGFKGFAHWMKKQAQEELTHAMKFYEYIYERGGRVELEAIEKPPSNWNGIKDAFEAALKHEEFVTQSIYNILELASEEKDHATVSFLKWFVDEQVEEEDQVREILDLLEKANGQMSVIFQLDRYLGQRE”, the protein production result is reported as “not failed”.
Consider “MMVPDVSNFAVILTTSGAILLIAYLTAISARDVIRLLISLELMFAAVFLAIVPLFSINPPMAYAVAIITAFTSSTELMVLVTAIILLDRRKRGIDVDKVAVGGDSL”, for which the protein production entry was “failed”.
Under “MMWIPYNQGFHAGPKCLTVVFIYLLNMKVLRHIYRFLMELYGPQGWWPLLDRDTMTLRYHPGDYTPPSDDGDVFEVITGSILTQNTSWDSAASALRNLAAMDALKPHRILSLDDAELEAAIRCAGFYRQKVSYLREMAGFFISLEGSTPSRKELLKVRGVGPETADSVLLYAYRKPEFVVDAYTRRILTHLGLIAGDESYHRIKELFERSLEPDFRVFQEYHALIVRHGKSYYRGRVHGDGDPLEHHHHHH” stands “failed”; under “MMWNLIKNEFIKLRYKRKYIICTIVFALICIGFCAVYVKMQKASTPDAAIQYYKDAKSSLQSKEKNIKDATLKQQYDQQISQLDEQIKQYQQSKNQGNSNWKKQLKNTIDSLKDEKNQAADITENTAKESYNKQIVFYQYLLNHNIKPQDNNSLSTFQLLQSLLKLIGYILIPIIIAIFSADIVSGEYTPPTIKVLLSKPASRAKILASKFIASAISCIAIILLIELITYLITGIAYGFDNPSYPVLVGTKYMNSGIKLTQDSTGLIPILGSSYVIPLWQFLIEMFLFQILFIIGCCSFFLLLSVVLRSSVLSMTLSIMIVIALNIISQISALHVIMPFLFTNYGSPYDILTNSIPSTSGLTFTTAIFGVIYLIIFTILCYGIANYSFKKKDMTV”, “failed”; under “MMYPYVRLFMEMRRARRLDPLPVLGTHRSSHRCLPWDLAPWRELNNGRTLTLFDLGRAPLLVRTGMQRICSEKGWGMTVAGSSVRYRRRVVLMERLEMVSRCLGWDGRFFYMEQSLWRKGDCTSHMLLRAATTTGSGIVPPAEVAAALGAGESPPLPDWAQAWIEADALRPWPPAALEHHHHHH”, “failed”.
Under “MMYRNQCTAKEKLMNRINEVSFAVNDVLLYLDTHPCCEEAISFYQECEQERQKLLKEYAQCYGPLTVDAALESGGDTWKWVQQPFPWETEGGCRLEHHHHHH” stands “not failed”; under “MNADYFFNQGLSDNLSREYQRTVVGGTKPTNRRIDAETYCKRGITFSRELKDYQGAIAFFNLAVEINPNYAQAYYHRANARYCLADFTAAIADYDQALQINPTFAEYYYCRGNAYLAQGDYDQAIANYISTIEFDPLLASNINEDIANAYYYRGLNNNDQGNYQEAIIDLQQALQWHPYFAAAYSIRGNIYYKLGEYRQAIADHERAVQLDPNLAEAYQNRGNAHYALGAYQKAIADYNRTLEINPHQVGAYYNRGLISFYLHEYQQAFADFNQVLNFNPNDAQAYYQRGLIYEAWQDYQSALADYNQSLQLNSELAVVYGVRANIYRHLGDYPSALADGNRLLELQPNFAAGYCDRATSRRCLGDYRGAIADYNQALQINPNIAEAYYGRAIAHEALRDFIGAIADYTQSIRISPDFAPAYCNRGNARRQLGDTKGAVTDYNQALTINPQLSEAYYNRGSLHYDQQNYRSAIADYTQALELQPESARYYSDRAHARYALQDYQGAVADYTQSIAINPGYAEDWYNRGRSHLLLGYLEEALADLNQALKFHPHWASAYLLRADILRNRGDYQAAIADFQKSADLYSQEGNTQNYQQILEIIAGLK”, “failed”; under “MNAENNQTTTTHSKVISHVFCTGTAKLGSVGPPIGLVDIGVSEVAYIFRVSLPGIEKNQDKIKCEIQREGRVCIQGVIPEIAIPSDTGCLYRMQVQQLCPPGPFSITFNLPGQVDPRLFSPNFRSDGIFEVVVVKLGVRIPTS”, “failed”.
Under “MNAIILAAGFGSRLMPLTKDQPKCMVEYKNKKIIDYEIEALKSAGINEIAVVGGYLNDVLKNYLNKYDIEHFFINSKYDKTNMVHTFFCAKDFMLKCIEEKQDLIISYADIVYFQDCVQKLINAKEELAIVVDKSWCKLWSKRFANPLEDAETLKMTNGYIIELGKKANAYDEIEAQYIGLFKFSYQFLSEVIAFYEMLDRDILYDNKNFENMYMTSFLQALIEKYNNAKAVEIDGNWCEIDFMSDLEVQIEKLEHHHHHH” stands “failed”; under “MNAIISPDYYYVLTVAGQSNAMAYGEGLPLPDREDAPHPRIKQLARFAHTHPGGPSCHFNDIIPLTHCPHDVQDMQSYHHPLATNHQTQYGTVGQALHIARKLLPFIPDNAGILIVPCCRGGSAFTAGSEGTYSERHGASHDACRWGTDTPLYQDLVSRTRAALVKNPQNKFLGVCWMQGEFDLMTSDYASHPQHFNHMVEAFRRDLKQYHSQLNNITDAPWFCGDTTWYWKENFPHAYEAIYGNYQNNILANIIFVDFQQQGARGLTNAPDEDPDDLSTGYYGSAYRSPENWTTAXRSSHFSSAARRGIISDRFVEAILQFWRER”, “not failed”; under “MNAKPKDTVIANARIVLADRVIEQGWLALANGRVAEIGEGRAPAGAEDAGGDLIMPGLIELHTDHLEAHYVPRPKVFWNPVAAVVSYDGQLATSGITTVFDSLRVWREDGAEEVDGRAGVLAAAITTARDADLLRADHFLHLRCEIPMPSVVEEAKELIDRPDVKLMSLMDHTPGQRQFRDEGKLRDYYRGKNGGKTDAQLDELFAKRFEYQKAYAATNMREIVALAHQYNIPLASHDDTTEENVADAVRDRVSVAEFPTTLEAARGLHQAGIDILMGAPNVVRGGSHSGNIAAVDLAREGLLDILSSDYIPSSLLMAALQLPEHVPAISLPAAVRTVTKAPAEAVGLSDRGEIAVGKRADLIRVHIAGSVPVVRSVWREGGRVA”, “failed”.
